# Laboratory results: the RNAGym collection of RNA variant scans (doi:10.7554/elife.80360)
# B1: Hammerhead Ribozyme (parent)
# chain: ACCGGAUGUGCUUUCCGGUCUGAUGAGUCCGUGAGGACGAAACAG
# Variants of: B1
# Assay: self-cleavage, relative activity (ratio to wild type); higher = more cleavage; co-transcriptional
row,Variant,self-cleavage
1,G4U A44U,0.33
2,A37C G45A,0.404
3,G31A G35C,1.01
4,G10A U12C,1.38
5,U9C G17A,0.754
6,U7C,1.05
7,G10A A37U,0.921
8,G5A G17U,0.452
9,A44U G45U,1.91
10,G22U A40C,0.368
11,U21A A41U,0.325
12,A23U C38A,0.381
13,C2A U19A,0.308
14,C29U A37C,0.93
15,U12C G35U,0.834
16,U12A A44G,1.66
17,G5U U28A,0.361
18,C11A U21A,0.895
19,C11U G35U,0.846
20,U9C C15G,0.49
21,U24A G36C,0.362
22,A23C C43A,0.343
23,C11G C43U,0.483
24,G4A A6C,0.232

row,Variant,self-cleavage
1,U9G U32A,1.31
2,U21G C43G,0.324
3,G17U G31A,0.918
4,A23C U32G,0.383
5,A23C U32C,0.509
6,C2U U12C,1.06
7,U28C G33U,0.973
8,A1U C30A,0.487
9,G22A A37U,0.288
10,C15A C16U,0.647
11,U12G G18U,0.998
12,G22U G45A,0.345
13,C20U A44G,0.962
14,C20G G45C,0.302
15,U19G G27C,0.288
16,G25A U28C,0.355
17,G25A U28G,0.313
18,C20U C38U,0.501
19,C16G U28A,0.407
20,U14A G18C,0.456
21,C11A G35U,0.902
22,G35C A42U,0.324
23,A23G C43U,0.269
24,G18C A34C,0.36

row,Variant,self-cleavage
1,G8C G22C,0.339
2,C3A U24A,0.811
3,C3U A44U,0.592
4,C11U G22A,0.382
5,A23G C29A,0.319
6,C30G A44G,0.769
7,U9A U24G,0.919
8,C38U G45A,0.689
9,G10A C30A,1.01
10,G22C A44G,0.672
11,A1U A40C,0.387
12,A6G U14C,0.704
13,U24A A40U,0.359
14,A6G U28A,0.468
15,C15G U28G,0.384
16,U24G G35A,1.03
17,U24C C43G,0.36
18,G25C A44U,0.263
19,U9A A34C,1.2
20,G17U G36U,0.46
21,G4C U32A,0.743
22,U32A G35C,0.796
23,U7C C20G,0.306
24,G22A G27U,0.28

row,Variant,self-cleavage
1,G22U G31A,0.397
2,G22U G31C,0.303
3,G10U G39A,0.405
4,G18U A41C,0.427
5,U13C G18U,0.933
6,U14G U28A,0.796
7,U13A A37C,1.21
8,A37C A40C,0.285
9,G8U C20U,0.551
10,U14G A37G,0.782
11,C30U A44G,1.36
12,C3U U12A,1.04
13,G10C G27U,0.555
14,C30U A41U,0.419
15,U24C G33C,1.15
16,A1C G8C,0.432
17,C11G A37U,0.897
18,U7C U19A,0.397
19,A1G U28C,1.79
20,G10A,1.09
21,G4C G22C,0.241
22,C3U G45C,0.579
23,G4U,0.515
24,A23C G27U,0.256

row,Variant,self-cleavage
1,A34G G45C,0.551
2,A34G G45A,0.589
3,G8C G31A,1.06
4,U7C G18C,0.342
5,G27U G36C,0.304
6,U21A G33C,0.584
7,G18U A42C,0.371
8,G33A A42C,0.394
9,C29U C30A,0.609
10,C20G C38A,0.241
11,G36A A41U,0.279
12,G8U A44G,1.37
13,G25U G35C,0.259
14,U13C G17U,0.884
15,U13C G17A,0.809
16,U21C C43A,0.216
17,C30G G31A,0.806
18,U21A C29U,0.558
19,G4U G8U,0.933
20,G18U A40C,0.394
21,G18C C30U,0.606
22,U7G U21G,0.426
23,A6U C15G,0.527
24,G31U G45U,0.933

row,Variant,self-cleavage
1,G5U U9G,0.523
2,C15A U24C,0.892
3,G10U G27A,0.825
4,G4A G18A,0.372
5,A23U G25C,0.31
6,G25U G39C,0.302
7,U12G A44G,1.57
8,G35A G45A,0.452
9,G5A G8C,0.954
10,U24G G27C,0.692
11,C2U C20U,0.797
12,C2U C20A,0.63
13,U28G G45U,0.527
14,C11U U14A,0.998
15,G5U G18A,0.334
16,G18C A40C,0.389
17,U9C G33C,1.18
18,G22U A23U,0.307
19,G18C U19C,0.375
20,G33C G35U,0.795
21,C3U G22A,0.381
22,C3U G22C,0.341
23,G5U C20U,0.595
24,U21G G39A,0.354

row,Variant,self-cleavage
1,A41C A42G,0.276
2,U14G G39A,0.305
3,U19C G36A,0.475
4,G18A U28A,0.475
5,G8C U14A,1.08
6,C3A U14C,0.436
7,A23C C30A,0.306
8,U9C C29A,0.77
9,A6U G33U,0.403
10,G4U G33A,0.608
11,U7A G45U,0.484
12,U13C G39C,0.471
13,A6G G10A,0.989
14,A26C G39C,0.45
15,G8U G25C,0.302
16,C11G G35U,0.957
17,A1C C29A,0.31
18,A40C G45U,0.431
19,G33C A34U,1.33
20,G4C G35A,0.297
21,U12C G22C,0.337
22,C20G G31U,0.356
23,G25C G31U,0.358
